{"source": "paper PMC8113354", "system": "FgU2AF23-His;GST-FgRbp1 (Fusarium graminearum PH-1;Fusarium graminearum PH-1)", "assay": "pull-down", "conditions": "scale: fold FgU2AF23-His bound vs FgU2AF23 alone"}
{"substance": "FgRPS20 exon1-intron1-exon2 RNA", "values": [{"measurement": "binding signal", "value": 1.6}]}
